Results on 4 molecules are retold here after patent US8034783B2, “Prodomain modulators of ADAM 10” (Biozyme, Inc., priority 2006, dated 2011).

For one test, the target named is T1, ADAM 10 (human) Cat/Dis (Homo sapiens, UniProt O14672).
T1 construct: containing the catalytic/disintegrin domains; purchased R & D Systems (Minneapolis, Minn., USA)
T1 sequence (O14672 214-672 limits assumed): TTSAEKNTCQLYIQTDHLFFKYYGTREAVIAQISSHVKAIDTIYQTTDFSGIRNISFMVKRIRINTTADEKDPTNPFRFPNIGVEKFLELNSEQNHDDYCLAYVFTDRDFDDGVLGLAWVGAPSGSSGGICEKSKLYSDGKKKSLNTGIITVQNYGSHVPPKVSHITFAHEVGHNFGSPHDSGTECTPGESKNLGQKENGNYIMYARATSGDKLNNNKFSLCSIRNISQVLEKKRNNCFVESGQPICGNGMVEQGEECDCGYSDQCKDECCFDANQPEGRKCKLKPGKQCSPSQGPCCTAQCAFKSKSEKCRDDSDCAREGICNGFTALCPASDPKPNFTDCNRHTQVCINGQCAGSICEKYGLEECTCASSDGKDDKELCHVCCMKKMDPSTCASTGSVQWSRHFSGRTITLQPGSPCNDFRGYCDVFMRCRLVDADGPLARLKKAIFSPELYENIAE
The test can be described thus: Inhibition assay with ADAM10 catalytic/disintegrin construct, fluorescent substrate. The format is biochemical. As for the experimental part:
(§1) Inhibition assays with TACE and ADAM 10. Activity of TACE catalytic/disintegrin, TACE catalytic, or ADAM10 catalytic/disintegrin constructs was monitored at 3 minute intervals using the fluorescent substrate, Dabcyl-LAQAHomoPheRSC(Fluorescein)-NH2 (SEQ ID NO 17) with excitation 485 nm and emission 530 nm. The substrate was diluted from a 10 mM stock in DMSO to 10 μM in assay buffer containing 20 mM Tris, pH 8.0, and 0.0006% Brij-35. Reactions were run in a 96-well black-coated plate with either ADAM10 prodomain (10 nM-1.0 μM) alone or with enzyme. Concentrations of enzyme ranged from 0.5-2.0 nM for TACE and 5-15 nM for ADAM10. For assays with TACE and ADAM8 prodomain, the range of concentrations varied from 1-4.7 μM.
(§2) Calculation of inhibition constants. The amount of activity was calculated by subtracting the ADAM 10 prodomain control from the ADAM 10 prodomain with enzyme. All inhibition assays were performed at room temperature and the data fit to the following equation using Sigma Plot software:
(§3) [formula] where If is fractional inhibition, I is the inhibitor concentration and Ki is the inhibition constant.
Wild type ADAM 10 prodomain (23-213) was tested to determine the mode of inhibition of ADAM 10 protein. ADAM 10 protein was diluted 1:100 in buffer 25 mM Tris pH 8, 0.0006% Brij-35 and then 10 μl was added to 88 μl of substrate (20-100 μM), Dabcyl-LAQAHomoPheRSC(Fluorescein)-NH2 with excitation 485 nm and emission 530 nm. Prodomain, 2 μl, in 25 mM Tris, pH 8, 100 mM NaCl, 10% glycerol, 0.1% mercaptoethanol, and 50 μM CaCl2 was added to substrate before addition of enzyme. The final concentration of prodomain ranged from 17-170 nM. The fluorescence vs time was plotted, and slopes were taken from straight line fits of initial velocities. The reciprocal of the velocities was plotted vs the reciprocal of substrate squared since the normal Lineweaver Burke plot gave curved lines. The initial velocities vs substrate concentrations were fit as a family of curves to several allosteric models.

Another test concerns CD23 shedding in B cells. The test can be described thus: CD23 shedding in B cells, flow cytometry. In kind it is cell-based. The settings on record: 1-5 μM, 12 hr. How it is done:
The CD23 sheddase activity of ADAM 10 protein was further tested in a B-cell assay. B-cells were cultured for 12 hr in the presence or absence of IL-4 (100 ng/ml), wild type C-terminal His tagged ADAM 10 (23-213) (1-5 μM) or match diluent control (25 mM Tris-HCl pH 8, 100 mM NaCl, 10% glycerol, 0.1% β-mercaptoethanol). Cells were stained for expression of surface antigens following washing with 1% BSA/PBS. Cells were incubated for 30 minutes at 4° C. in the dark with fluorochrome-conjugated mAbs: APC-CD19 (CALTAG, Burlingame, Calif.), CD23-PE, mlgG1-PE (BD Biosciences) before washing to remove unbound mAb. Cells were resuspended in PBS and immediately analyzed with the use of the FACS Calibur (BD Biosciences). The software program FlowJo (Ashland, Oreg.) was used to analyze data generated by flow cytometry.
On the technique in general: A flow cytometer gives signals particle by particle.

In the next test the test system is MMP 1, 2, 3, 9, 13, 14. The test can be described thus: Inhibition assays with MMPs. The format is biochemical. Conditions: 3 μM prodomain. As for the experimental part:
Inhibition assays with MMPs. The fluorescent substrate Dabcyl-GPLGMRGC (Fluorescein)-NH2 (SEQ ID NO 18) (10 μM) in assay buffer containing 50 mM Tris, pH 7.5, 150 mM NaCl, 2 mM CaCl2, 5 μM ZnSO4, and 0.01% Brij-35 was used to monitor enzyme activities. MMPs 1, 2, 3, 9, 13, and 14 (0.1-20 nM) were incubated with substrate in the absence or presence of prodomain (3-30 μM). Fluorescence intensities were measured every 3-5 minutes at an emission wavelength of 530 nm (excitation 485 nm).
as §2, §3

The target of another test is T2, TACE (human) Cat (Homo sapiens, UniProt P78536).
T2 construct: TACE catalytic domain, Marcos Milla, University of Pennsylvania; donated by Marcos Milla, University of Pennsylvania
T2 sequence (P78536 223-474 limits assumed): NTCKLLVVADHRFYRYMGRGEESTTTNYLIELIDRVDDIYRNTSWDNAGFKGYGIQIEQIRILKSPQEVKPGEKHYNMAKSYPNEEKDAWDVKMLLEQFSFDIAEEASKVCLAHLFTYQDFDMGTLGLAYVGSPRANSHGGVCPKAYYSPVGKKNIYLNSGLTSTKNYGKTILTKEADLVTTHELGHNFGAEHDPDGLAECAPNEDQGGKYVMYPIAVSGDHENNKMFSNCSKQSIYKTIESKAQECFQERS
The test can be described thus: Inhibition assay with TACE catalytic domain, fluorescent substrate. In kind it is biochemical. The settings on record: at 3.5 μM. As for the experimental part: as §1, §2, §3

Test [1] has as its target T3, ADAM 8 (mouse) catalytic domain (Mus musculus, UniProt Q05910).
T3 construct: The ADAM 8 catalytic domain was expressed and purified from E. coli as described (22); made in house; host or cells: E. coli
T3 sequence (Q05910 196-395 limits assumed): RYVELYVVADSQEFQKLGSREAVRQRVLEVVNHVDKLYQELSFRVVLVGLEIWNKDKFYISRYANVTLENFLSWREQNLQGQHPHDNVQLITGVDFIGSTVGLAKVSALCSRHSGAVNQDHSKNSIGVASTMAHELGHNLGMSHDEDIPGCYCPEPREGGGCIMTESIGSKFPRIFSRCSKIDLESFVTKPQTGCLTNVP
The test can be described thus: Inhibition assay with ADAM 8 catalytic domain. The format is biochemical. Conditions: at 1.7 μM. As for the experimental part:
Inhibition assays with ADAM 8. The ADAM 8 catalytic domain was expressed and purified from E. coli as described (22). A substrate based on the L-selectin cleavage site, Dnp-INorIeuQKLDKSFSMIKE-NH2 (SEQ ID NO 20), was used to monitor enzyme activity with a fluorescamine assay. From a concentrated 50 mM solution in DMSO, the substrate was diluted 1:500 in 25 mM HEPES, pH 8.0, 0.0006% Brij-35. To 100 μl of diluted substrate was added either 5 μl of buffer (Tris, pH 8.0, 150 mM KCl) or 5 μl of ADAM10 prodomain (1-10 μM). Zero time points were taken by diluting 12.5 μl of the reaction mixture into 100 μl of fluorescamine buffer (50 mM HEPES, pH 8.0, 0.2 M NaCl, 0.01 M CaCl2, 0.01% Brij-35) in a 96-well black-coated plate. Before measuring fluorescence, 3 μl of a 1% solution of fluorescamine in DMSO was added to each well. The plate was allowed to incubate for 10 min in the dark before measuring fluorescence (excitation wavelength at 390 nm, emission wavelength at 485 nm). For assays with TACE and ADAM8 prodomains, a fluorescent substrate was used to monitor activity at concentrations of prodomains ranging from 1-4.7 μM.
Calculation of inhibition constants. The amount of activity was calculated by subtracting the ADAM 10 prodomain control from the ADAM 10 prodomain with enzyme. […]

For the next test, the target named is T4, TACE (human) Cat/Dis (Homo sapiens, UniProt P78536).
T4 construct: containing the catalytic/disintegrin domains; purchased R & D Systems (Minneapolis, Minn., USA)
T4 sequence (P78536 215-671 limits assumed): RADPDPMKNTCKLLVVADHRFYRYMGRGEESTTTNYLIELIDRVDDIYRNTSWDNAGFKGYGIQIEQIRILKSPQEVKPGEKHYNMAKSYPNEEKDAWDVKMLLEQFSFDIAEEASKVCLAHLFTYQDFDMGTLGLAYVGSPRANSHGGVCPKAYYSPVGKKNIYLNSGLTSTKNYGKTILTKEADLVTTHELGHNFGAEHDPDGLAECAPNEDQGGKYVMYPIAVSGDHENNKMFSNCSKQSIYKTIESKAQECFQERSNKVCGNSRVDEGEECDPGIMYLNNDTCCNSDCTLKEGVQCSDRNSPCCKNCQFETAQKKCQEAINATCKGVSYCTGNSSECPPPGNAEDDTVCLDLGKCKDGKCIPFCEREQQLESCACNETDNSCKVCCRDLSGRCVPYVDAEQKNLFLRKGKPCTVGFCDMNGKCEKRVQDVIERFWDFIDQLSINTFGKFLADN
The test can be described thus: Inhibition assay with TACE catalytic/disintegrin construct, fluorescent substrate. The format is biochemical. How it is done:
as §1, §2, §3

Non-standard residues stand in square brackets, D forms with d. Primed or numbered codes have the meaning given here. *: point of attachment. Fluorescein = fluorescein label attached to the cysteine side chain; Dabcyl′ = CN(C)c1ccc(/N=N/c2ccc(C(=O)*)cc2)cc1; hPhe = N[C@@H](CCc1ccccc1)C(=O)O

Turning to “Dabcyl-LAQAHomoPheRSC(Fluorescein)-NH2 ({Dabcyl′}-LAQA[hPhe]RSC(Fluorescein)-NH2) [fluorescent substrate for TACE and ADAM10 assays, reference compound]”, the “binding constant, Ks for substrate” value in the test with ADAM 10 (human) Cat/Dis (fit to pure competitive allosteric model) was 16 ± 4.6 µM.

B1: wt ProADAM 10 23-213 (C-terminal His tag): wild type mouse ADAM 10 prodomain, amino acids 23-213, C-terminal His tag, expressed in E. coli (protein)
chain: NPLNKYIRHYEGLSYNVDSLHQKHQRAKRAVSHEDQFLLLDFHAHGRQFNLRMKRDTSLFSDEFKVETSNKVPDYDTSHIYTGHIYGEEGSFSHGSVIDGRFEGFIKTRGGTFYIEPAERYIKDRILPFHSVIYHEDDINYPHKYGPQGGCADHSVFERMRKYQMTGVEEGARAHPEKHAASSGPELLRKKHHHHHH
As to B1, in the test on CD23 shedding in B cells (IL-4 100 ng/ml, FIG. 2D), the “inhibition of shedding in B cells stimulated with IL-4” value is recorded as “able to inhibit shedding”. In the test with CD23 shedding in B cells (without IL-4, FIG. 2C), the “inhibition of shedding in B cells” value is “able to inhibit shedding”. Further, the “inhibition of matrix metalloproteinases 1, 2, 3, 9, 13 and 14” value in the test on MMP 1, 2, 3, 9, 13, 14 is “not inhibited”. Besides, in the test with ADAM 10 (human) Cat/Dis (initial velocities fit to allosteric models), the “mode of inhibition of ADAM 10 protein” value is listed as “pure competitive”.

B2: wt ProADAM 10 23-213 (N-terminal His tag): wild type mouse ADAM 10 prodomain, amino acids 23-213, N-terminal His tag, expressed in E. coli (protein)
chain: NPLNKYIRHYEGLSYNVDSLHQKHQRAKRAVSHEDQFLLLDFHAHGRQFNLRMKRDTSLFSDEFKVETSNKVPDYDTSHIYTGHIYGEEGSFSHGSVIDGRFEGFIKTRGGTFYIEPAERYIKDRILPFHSVIYHEDDINYPHKYGPQGGCADHSVFERMRKYQMTGVEEGARAHPEKHAASSGPELLRKK
modifications: left off: small tags and cut ends
notes: wild type mouse ADAM 10 prodomain, amino acids 23-213, N-terminal His tag, expressed in E. coli
B2: the “inhibition of matrix metalloproteinases 1, 2, 3, 9, 13 and 14” value in the test on MMP 1, 2, 3, 9, 13, 14 is listed as “not inhibited”.

B3: Pro ADAM 17 (mouse): prodomain of mouse TACE (ADAM 17), residues 18-214, His-tagged, expressed in E. coli (protein)
chain: PRPPEEAGSGSHPRLEKLDSLLSDYDILSLANIQQHSIRKRDLQSATHLETLLTFSALKRHFKLYLTSSTERFSQNLRVVVVDGKEESEYSVKWQNFFSGHVVGEPDSRVLAHIGDDDVTVRINTDGAEYNVEPLWRFVNDTKDKRMLVYKSEDIKDFSRLQSPKVCGYLNADSEELLPKGLIDREPSEEFVRRVKR
modifications: left off: small tags and cut ends
notes: prodomain of mouse TACE (ADAM 17), residues 18-214, His-tagged, expressed in E. coli
On to B3, for which the “inhibition of ADAM 10 (human) Cat/Dis” value with ADAM 10 (human) Cat/Dis (at 3.5 μM) came to 11% at 3.5 μM. In the test with TACE (human) Cat, the “inhibition of TACE (human) Cat” value is 37%. In addition, the “inhibition of ADAM 8 (mouse) Cat” value in test [1] was determined as 17% at 1.7 μM. In the test with TACE (human) Cat/Dis (at 3.5 μM), the “inhibition of TACE (human) Cat/Dis” value is listed as 0%. Besides, the “inhibition of respective enzyme (TACE) by its prodomain” value in the test with TACE (human) Cat/Dis (micromolar concentrations) was “did not inhibit”.
